The nature of data set [1]: pH stability, 3 hours at 25° C., residual activity by PMS-DCIP assay. It is filed as physicochemical. The note with it: relative to no incubation at pH 8.0. On the procedure: Enzymes A, A′, A″ and B were incubated in buffers of various pH-values for 3 hours at 25° C. and the residual activities were assayed and expressed as relative values against that obtained by no incubation at pH 8.
Table 3 indicates the results of pH-stabilities of the enzymes. The enzyme (about 0.01 mg/ml) was incubated with 50 mM buffer containing 5% sucrose, 0.2 M NaCl, and 5 mM CaCl2 at 25° C. for 3 hours and assayed by PMS-DCIP spectrophotometric method. The buffers were Na-acetate, pH4 and 5, Tris-malate-NaOH, pH 6, 7 and 8, glycine-NaOH, pH 9 and 10. The values in the table are expressed as relative activity against that obtained by no incubation at pH 8.0.

Data set [2] can be described thus: 2KGA production by purified recombinant AADH in a reaction mixture. It is filed as biochemical. The note with it: 1.7 mg/ml enzyme, 4% L-sorbose, 30° C., 20 hours; TLC assay. The source says: As a result, about 2 g/l 2KGA (TLC assay) was produced. […]
A short description of data set [3]: Product assay with Enzyme sA2 and Enzyme A. It is filed as biochemical.

B1: Enzyme B: recombinant AADH of G. oxydans DSM No. 4025, amino acid sequence SEQ ID NO 8, plasmid pSS31/pSSB103R (protein)
chain: MNPTTLLRTSAAVLLLTAPAAFAQVTPITDELLANPPAGEWINYGRNQENYRHSPLTQITADNVGQLQLVWARGMEAGAVQVTPMIHDGVMYLANPGDVIQALDAQTGDLIWEHRRQLPAVATLNAQGDRKRGVALYGTSLYFSSWDNHLIALDMETGQVVFDVERGSGEDGLTSNTTGPIVANGVIVAGSTCQYSPYGCFISGHDSATGEELWRNHFIPQPGEEGDETWGNDFEARWMTGVWGQITYDPVTNLVFYGSTGVGPASETQRGTPGGTLYGTNTRFAVRPDTGEIVWRHQTLPRDNWDQECTFEMMVANVDVQPSAEMEGLRAINPNAATGERRVLTGAPCKTGTMWSFDAASGEFLWARDTNYTNMIASIDETGLVTVNEDAVLKELDVEYDVCPTFLGGRDWSSAALNPDTGIYFLPLNNACYDIMAVDQEFSALDVYNTSATAKLAPGFENMGRIDAIDISTGRTLWSAERPAANYSPVLSTAGGVVFNGGTDRYFRALSQETGETLWQARLATVATGQAISYELDGVQYIAIGAGGLTYGTQLNAPLAEAIDSTSVGNAIYVFALPQ
modifications: Gluconobacter oxydans; SIGNAL (1)..(23)
For the molecule B1, the “Relative activity (pH stability)” value in data set [1] (incubated at pH 4.0, 3 hours) stood at 25.2%; in data set [1] (incubated at pH 5.0, 3 hours), 56.1%; in data set [1] (incubated at pH 6.0, 3 hours), 100.9%; in data set [1] (incubated at pH 7.0, 3 hours) it was 101.9%; in data set [1] (incubated at pH 8.0, 3 hours), 114.0%; in data set [1] (incubated at pH 9.0, 3 hours), 101.9%. Besides, the “Relative activity (pH stability)” value came out at 85.5% in data set [1] (incubated at pH 10.0, 3 hours) and 70.1% in data set [1] (incubated at pH 11.0, 3 hours).

B2: Enzyme A′: recombinant AADH of G. oxydans DSM No. 4025, amino acid sequence SEQ ID NO 6, plasmid p1E2 (protein)
chain: MKTSSLLVASVAALASYSSFALAQVTPVTDELLANPPAGEWISYGQNQENYRHSPLTQITTENVGQLQLVWARGMQPGKVQVTPLIHDGVMYLANPGDVIQAIDAKTGDLIWEHRRQLPNIATLNSFGEPTRGMALYGTNVYFVSWDNHLVALDTATGQVTFDVDRGQGEDMVSNSSGPIVANGVIVAGSTCQYSPFGCFVSGHDSATGEELWRNYFIPRAGEEGDETWGNDYEARWMTGVWGQITYDPVGGLVHYGSSAVGPASETQRGTTGGTMYGTNTRFAVRPETGEIVWRHQTLPRDNWDQECTFEMMVANVDVQPAADMDGVRSINPNAATGERRVLTGVPCKTGTMWQFDAETGEFLWARDTSYENIIESIDENGIVTVDESKVLTELDTPYDVCPLLLGGRDWPSAALNPDTGIYFIPLNNTCMDIEAVDQEFSSLDVYNQSLTAKMAPGKELVGRIDAIDISTGRTLWTAEREASNYAPVLSTAGGVLFNGGTDRYFRALSQETGETLWQTRLATVASGQAVSYEIDGVQYIAIGGGGTTYGSFHNRPLAEPVDSTAIGNAMYVFALPQQ
modifications: Gluconobacter oxydans; SIGNAL (1)..(23)
Consider B2, for which the “Relative activity (pH stability)” value is given as 0.0% in data set [1] (incubated at pH 4.0, 3 hours); 10.0% in data set [1] (incubated at pH 5.0, 3 hours); 82.7% in data set [1] (incubated at pH 6.0, 3 hours); 96.9% in data set [1] (incubated at pH 7.0, 3 hours); 100.0% in data set [1] (incubated at pH 8.0, 3 hours); 97.3% in data set [1] (incubated at pH 9.0, 3 hours). Moreover, the “Relative activity (pH stability)” value in data set [1] (incubated at pH 10.0, 3 hours) came out at 85.4%; in data set [1] (incubated at pH 11.0, 3 hours) it was 61.3%.

B3: Enzyme A: recombinant AADH of G. oxydans DSM No. 4025, amino acid sequence SEQ ID NO 5, plasmid p24D4/pSSA102R (protein)
chain: MKPTSLLWASAGALALLAAPAFAQVTPVTDELLANPPAGEWISYGQNQENYRHSPLTQITTENVGQLQLVWARGMQPGKVQVTPLIHDGVMYLANPGDVIQAIDAKTGDLIWEHRRQLPNIATLNSFGEPTRGMALYGTNVYFVSWDNHLVALDTATGQVTFDVDRGQGEDMVSNSSGPIVANGVIVAGSTCQYSPFGCFVSGHDSATGEELWRNYFIPRAGEEGDETWGNDYEARWMTGAWGQITYDPVTNLVHYGSTAVGPASETQRGTPGGTLYGTNTRFAVRPDTGEIVWRHQTLPRDNWDQECTFEMMVTNVDVQPSTEMEGLQSINPNAATGERRVLTGVPCKTGTMWQFDAETGEFLWARDTNYQNMIESIDENGIVTVNEDAILKELDVEYDVCPTFLGGRDWPSAALNPDSGIYFIPLNNVCYDMMAVDQEFTSMDVYNTSNVTKLPPGKDMIGRIDAIDISTGRTLWSVERAAANYSPVLSTGGGVLFNGGTDRYFRALSQETGETLWQTRLATVASGQAISYEVDGMQYVAIAGGGVSYGSGLNSALAGERVDSTAIGNAVYVFALPQ
modifications: Gluconobacter oxydans; SIGNAL (1)..(23)
As to B3, the “Relative activity (pH stability)” value in data set [1] (incubated at pH 4.0, 3 hours) stood at 5.4%; in data set [1] (incubated at pH 5.0, 3 hours), 32.0%; in data set [1] (incubated at pH 6.0, 3 hours) it was 74.7%; in data set [1] (incubated at pH 7.0, 3 hours), 76.9%; in data set [1] (incubated at pH 8.0, 3 hours), 80.1%; in data set [1] (incubated at pH 9.0, 3 hours) it was 60.1%. Also, the “Relative activity (pH stability)” value came out at 53.2% in data set [1] (incubated at pH 10.0, 3 hours) and 31.0% in data set [1] (incubated at pH 11.0, 3 hours). Also, the 2KGA produced entry in data set [2] is on record as “about 2 g/l”. Moreover, the “Products from D-sorbitol in product assay” value in data set [3] is on record as “D-glucose only”. Besides, the “Products from L-sorbose in product assay” value in data set [3] was found to be 2KGA.

B4: Enzyme A″: recombinant AADH of G. oxydans DSM No. 4025, amino acid sequence SEQ ID NO 7, plasmid p26C3 (protein)
chain: MKLTTLLQSSAALLVLGTIPALAQTAITDEMLANPPAGEWINYGQNQENYRHSPLTQITADNVGQLQLVWARGMEAGKIQVTPLVHDGVMYLANPGDVIQAIDAATGDLIWEHRRQLPNIATLNSFGEPTRGMALYGTNVYFVSWDNHLVALDTSTGQVVFDVDRGQGTDMVSNSSGPIVANGVIVAGSTCQYSPFGCFVSGHDSATGEELWRNTFIPRAGEEGDETWGNDYEARWMTGVWGQITYDPVGGLVHYGTSAVGPAAEIQRGTVGGSMYGTNTRFAVRPETGEIVWRHQTLPRDNWDQECTFEMMVVNVDVQPSAEMEGLHAINPDAATGERRVVTGVPCKNGTMWQFDAETGEFLWARDTSYQNLIESVDPDGLVHVNEDLVVTELEVAYEICPTFLGGRDWPSAALNPDTGIYFIPLNNACSGMTAVDQEFSSLDVYNVSLDYKLSPGSENMGRIDAIDISTGRTLWSAERYASNYAPVLSTGGGVLFNGGTDRYFRALSQETGETLWQTRLATVASGQAISYEIDGVQYVAIGRGGTSYGSNHNRALTERIDSTAIGSAIYVFALPQQ
modifications: Gluconobacter oxydans; SIGNAL (1)..(23)
In the case of B4, the “Relative activity (pH stability)” value in data set [1] (incubated at pH 4.0, 3 hours) is given as 6.2%; in data set [1] (incubated at pH 5.0, 3 hours), 77.9%; in data set [1] (incubated at pH 6.0, 3 hours), 105.8%; in data set [1] (incubated at pH 7.0, 3 hours) it was 100.9%; in data set [1] (incubated at pH 8.0, 3 hours), 99.0%; in data set [1] (incubated at pH 9.0, 3 hours) it was 100.9%. Moreover, the “Relative activity (pH stability)” value in data set [1] (incubated at pH 10.0, 3 hours) came out at 104.0%; in data set [1] (incubated at pH 11.0, 3 hours), 79.2%.

The record behind these values is US6730503B1 (Roche Vitamins Inc., priority 1996, dated 2004).
